Data: patent US8039438B2, “Synthetic peptides that cause F-actin bundling and block actin depolymerization” (The Regents of the University of California, priority 2003, dated 2011)
“Also recorded” adds a separate entry of the source.

Legend:
[1] = test system: actin comet tails in Xenopus egg extracts; assay: Actin comet-tail formation in cytoplasmic extracts; format: biochemical, Xenopus laevis; conditions: for effect on actin comet tails: FIGS. 4C, 4D, 4F, concentration not given
Procedure: In FIGS. 4A and 4B, in vitro polymerized actin forms comet tail from rhodamine-labeled actin added to Xenopus laevis egg cytoplasmic extract. This was set up according to the protocol in Taunton et al., J Cell Biol. 2000 Feb. 7; 148(3):519-30.
Crude Xenopus egg extract was prepared as described except that cytochalasin D was omitted (Murray and Kirschner, Nature. 1989 May 25; 339(6222):275-80). Cytosol and a heavy membrane fraction were prepared by centrifugation of the crude extract (2 h, 300.000 g max; BECKMAN SW-50 rotor). The viscous glycogen pellet beneath the membrane layer was discarded. Cytosol was further clarified by spinning for 15 min at 541,000 g max (BECKMAN TLA 100.3 rotor). Crude membranes (diluted with one volume of 2 M sucrose) and cytosol were snap frozen in separate aliquots for storage at −80° C. unless otherwise indicated. Clarified cytosol contained a small population of vesicles, but motility assays were far more robust (more comet tails over a longer time period) when cytosol was supplemented with the heavy membrane fraction.
For the standard assay, crude membranes in 1 M sucrose (20-μl aliquot, derived from ˜80 μl crude extract) were washed and resuspended in 14 μl buffer A (50 mM NaCl, 5 mM MgCl2, and 50 mM tris [pH 7.5]). To the membrane suspension were added 35 μl cytosol (derived from ˜80 μl crude extract), 0.3 μl rhodamine-labeled actin (prepared according to Kellogg et al., Development. 1988 August; 103(4):675-86), 3 μl PMA (20 μM stock in 10% DMSO), and 20 μl buffer A at 4° C. 20-μl samples were then warmed to room temperature. After 30-40 min, 2-μl aliquots were viewed with a Nikon E800 microscope to yield the photomicrographs of FIG. 4. Images were acquired with a Princeton Instruments cooled CCD camera (standard rhodamine filter set, Princeton Instruments, Trenton, N.J.) and analyzed with WINVIEW (Visitron System, Puchheim, Germany) or METAMORPH software (Princeton Instruments, Trenton, N.J.). Pixels having an intensity over a threshold value (set to a value greater than the background fluorescence in regions devoid of comet tails) were summed over 10 random fields to quantitate relative actin assembly.
Cytosol was supplemented with a crude membrane fraction, rhodamine-actin, 1 μM PMA and peptide SS2 or SS12 (1 μM). After incubating at room temperature for 20 min, samples were viewed by fluorescence. Actin comet tails formed in Xenopus cytoplasmic extracts where no SS2 or SS12 peptides were added as shown by the photographs A, B and E of FIG. 4.

[2] = test system: dextran-labeled electroporated cells; assay: Change in number of dextran-labeled cells after electroporation with peptide; format: cell-based; conditions: dextran-labeled cells counted before and after 18 hrs incubation
Procedure: Electroporated cells were treated with fluorescent dextran plus peptide so those cells receiving the peptide could be identified. Typically a very small number of cells successfully incorporate substance during electroporation, making it difficult to identify those receiving peptide. Typically one sees 10-20% incorporation. But, there is good evidence showing that if a cell incorporates one component in buffer, it will incorporate all components. Thus, dextran can be used to identify those cells receiving peptide. After electroporation of cells with fluorescent dextran and the active peptide SEQ ID NO: 12, the dextran-labeled cells were initially counted and then incubated for 18 hrs. After incubation overnight, the dextran-labeled cells were once again counted. The following Tables 4 and 5 show the average change in dextran-labeled cells after the cells are electroporated and the peptide has invaded the cell body. The cell numbers of the SS12 treated peptide seemed to fluctuate after incubation with various concentrations of the SS12 peptide.

[3] = test system: Embryos from Xenopus laevis; assay: Actin-dependent cleavage in embryos injected with peptide; format: in vivo; conditions: 0.6 mg/mL final concentration in egg; for effect on cell division of embryos: injected, fixed at 8-cell stage
From the text: Referring now to photographs of FIG. 3 the peptides have a severely abnormal effect on the embryonic development of cells. […] The embryos resemble the uninjected normal embryos of FIG. 3A
The resulting blastomeres were unable to regain function and were severely abnormal showing abortive cleavage furrows.
However, in the embryos injected with the active peptide (FIG. 3F), filamentous actin is seen in the abortive cleavage furrows.

rabbit muscle actin = target: T1, rabbit muscle actin (Oryctolagus cuniculus, UniProt P68135); assay: In vitro bundling of actin by peptides (co-polymerization, differential centrifugation, SDS gel); format: biochemical; conditions: for activity designation of the peptide in the sequence list (active / less active / inactive): summary sequence table; for bundled actin upon inducing polymerization: polymerization induced (PI +); for In vitro actin bundling activity: Tables 2 and 3, peptide co-polymerized with actin in vitro
T1 construct: Purified rabbit muscle actin (Cytoskeleton Inc., Denver, Mo.); purchased Cytoskeleton Inc; host or cells: rabbit muscle
Procedure: The peptides in Table 2 were added to polymerised actin in vitro at different molar ratios. Centrifugation was used to separate fractions containing F-actin, G-actin and bundled actin, which were then run out on […]. Purified rabbit muscle actin (Cytoskeleton Inc., Denver, Mo.) was depolymerized in Low Salt Buffer [LSB; 5 mM Tris-HCl, pH 8.0, 0.2 mM CaCl2, 0.2 mM ATP, 0.5 mM DTT, mM sucrose) for 1 h on ice and denucleated by centrifugation for 1 h at 100,000×g, 4° C. 13 μM monomeric actin was polymerized in vitro by addition of 1/50 vol. […] The samples were centrifuged for 15 min at 10,000×g at room temperature to pellet “bundled filaments”. The resulting supernatant was centrifuged for 1 h at 100,000×g at room temperature to separate F-actin filaments […]. The fractions were boiled in SDS-sample buffer and analyzed on a 10% SDS-Polyacrylamide gel stained with Coomassie.

MDA 231 cells = assay: Actin reorganization in MDA 231 cells electroporated with peptide, rhodamine-phalloidin stained; format: cell-based, human; conditions: MDA 231 cells electroporated with peptide
Procedure: Referring now to FIG. 2, it can be shown that treatment with an active peptide results in actin organization in human mammary epithelial tumor cells. MDA 231 cells were electroporated with SS1 (panel A) or SS12 (panel B), fixed, and rhodamine-phalloidin stained. Control epithelial tumor cells were treated with SS1 (SEQ ID NO: 9) resulting in no effect on actin-filled lamellipodia (or ruffling) characteristic of crawling cells.
MDA 231 cells are a particularly aggressive tumor cell line crawling and moving from between tissues.

[4] = target: T2, rabbit muscle aldolase with actin (Oryctolagus cuniculus, UniProt P68135); assay: Aldolase co-precipitation with polymerized actin; format: biochemical; conditions: 1 nmol aldolase, 100 nmol peptide
T2 construct: presence (lanes 4-6) of rabbit muscle actin (2 nmol); purchased Sigma (aldolase); host or cells: rabbit muscle
From the text: Referring now to FIG. 7, since the SS2 sequence is specific to SuSy protein (with SS2 having some similarity to actin), we tested its effect on the well-known interaction of rabbit muscle aldolase with actin (Winter et al. 1998, Rabbit muscle aldolase was purchased from Sigma). Phalloidin could potentially interfere with the peptides of the invention since both drugs affect actin.
Addition of SS2 peptide had no effect on aldolase precipitation in the absence of actin (FIG. 7A), but increased the amount of aldolase co-precipitating with polymerized actin (FIG. 7B). Although binding of aldolase to actin is not sucrose dependent as shown for SuSy, the presence of Sucrose in the polymerization assay caused an additional increase in the amount of aldolase bound to polymerized actin as shown by lane 6 in FIG. 7B. Rabbit muscle aldolase (1 nmol) was incubated in the absence (lanes 1-3) or presence (lanes 4-6) of rabbit muscle actin (2 nmol).

[5] = 1:1 molar ratio peptide:actin, FIGS. 6C, 6D

Sequence	activity designation of the peptide in the sequence list (active / less active / inactive) (rabbit muscle actin)	bundled actin upon inducing polymerization (rabbit muscle actin; [5])	In vitro actin bundling activity (rabbit muscle actin)	bundling of actin during in vitro polymerization (rabbit muscle actin)	also measured
ENGIVRKWISRFEVW (synthetic peptide derived from Zea mays SuSy2 protein 357-389) [SEQ ID NO: 3, Zea mays SuSy2 375-389]	–	–	–	–	effect on actin comet tails [1]: complete disruption of the comet tails
GDRVLSRLHSVRERIGK (synthetic SS1 inactive control peptide) [reference compound]	SS1 inactive	–	–	–	% change in cell number [2]: +45.0%; % change in cell number ([2]; peptide concentration 0.2 μM): +1.2%; % change in cell number ([2]; peptide concentration 1.0 μM): +17.4%; % change in cell number ([2]; peptide concentration 10.0 μM): +43.8%; effect on cell division of embryos [3]: no effect; effect on actin-filled lamellipodia (MDA 231 cells): no effect
GIVRKAISRFEVAPYL (SS15 less active synthetic peptide)	SS15 less active	did not cause bundled actin	less active	–	form of polymerised actin (rabbit muscle actin; molar ratio peptide:actin 10:1 and 100:1, added to unpolymerized actin, FIG. 6E): predominantly in the bundled form
GIVRKWISRFEVWPYLKK (SS2 active peptide based on Zea mays SuSy 377- 392)	SS2 active	the bulk of the actin is bundled	active	most active	amount of aldolase co-precipitating with polymerized actin ([4]; 2 nmol actin, FIG. 7B): increased; aldolase precipitation in the absence of actin ([4]; FIG. 7A): no effect; lasting effect on cell division ([3]; divisions typically an hour apart): at least 3 divisions; effect on cell division of embryos [3]: block several cell divisions; bundling of already polymerized (filamentous) actin (rabbit muscle actin; 2 nmol actin polymerized 30 min, then 0, 1, 2, 4 and 20 nmol peptide for 30 min, FIG. 6B): Only the highest concentration of SS2 caused bundling; bundled actin with peptide alone (rabbit muscle actin; 1:1 molar ratio peptide:actin, polymerization not induced, FIGS. 6C, 6D): half of the actin bundled; effect of phalloidin on bundling activity of the peptide (rabbit muscle actin; FIG. 7): not affected; distribution of actin between bundled and F-actin fraction (rabbit muscle actin; added to unpolymerized actin, molar ratio peptide to actin 0.5, FIG. 6A): half-bundled and half-F-actin; effect on actin comet tails [1]: complete disruption of the comet tails; actin comet tail formation ([1]; peptide 1 μM, 1 μM PMA, 20 min at room temperature): little or no actin comet tail formation
GRMRRIATVEMMKK (SP26 inactive synthetic peptide) [reference compound]	SP26 inactive	–	inactive	not able to bundle actin filaments in vitro	–
WISRFEVW (Small block of SS12 sequence required for less active synthetic peptide) [SMIN]	SMIN less active	–	less active	–	–

Second part, led by results:

activity designation of the peptide in the sequence list (active / less active / inactive) (rabbit muscle actin)	bundled actin upon inducing polymerization (rabbit muscle actin; [5])	In vitro actin bundling activity (rabbit muscle actin)	Sequence	bundling of actin during in vitro polymerization (rabbit muscle actin)	also measured
NR11 inactive	–	inactive	GPTLKRTASTAFMNTTSKK (NR11 inactive synthetic peptide) [reference compound]	–	–
SS11 inactive	do not produce bundled actin	inactive	ILRVPFRTENGIVRK (SS11 inactive synthetic peptide)	not effective in bundling; also recorded: did not cause actin to bundle	–
SP3 inactive	do not produce bundled actin	inactive	RRISSVEDKK (SP3 inactive synthetic peptide) [reference compound]	–	–
